Test results published in the supplement of paper PMC9732359.
± gives the uncertainty stated by the source.

Assay: protein stability index of a GFP-peptide fusion (yeast GPS) (PSI 1-4); higher = more stable; sorted into four equal gates, so the index is relative within each strain
Outline: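 Yeast carrying a pooled library were grown to mid-log phase in leucine-free medium. Each library plasmid expresses Cherry and has a tiled 17-residue yeast protein peptide fused downstream of GFP. Cells were sorted into four equal gates by GFP/Cherry ratio, and plasmids from each gate were PCR-amplified, Illumina-sequenced and assigned to strains by barcode. Summing, across gates, the read frequency times the gate number gave each peptide's protein stability index.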

Sequence	protein stability index (doa10∆)	protein stability index (pdr5∆)	protein stability index (san1∆)	protein stability index (ubr1∆)
MLLCVSYFLQERYFDCC [PCI8]	1.19 ± 0.091	1.26 ± 0.058	1.55 ± 0.1	1.3 ± 0.092
EQERKELEKYNELERNR [SMC3]	3.14 ± 0.14	3.05 ± 0.18	3.2 ± 0.11	3.24 ± 0.091
ISTHLKTICNLLISDTE [IRR1]	1.64 ± 0.05	1.86 ± 0.059	1.88 ± 0.088	1.5 ± 0.032
QDPIFGSVLLTLLNFVS [ECM29]	1.63 ± 0.049	1.42 ± 0.052	1.5 ± 0.098	1.41 ± 0.063
LRQFKTCPVEVIKRLEA [BRR2]	2.94 ± 0.18	3.23 ± 0.17		2.81 ± 0.1
IPSAAFNFFEPIKEAKI [YMR129W/POM152]	1.98 ± 0.039	2.27 ± 0.037	2.15 ± 0.044	2.44 ± 0.025
ADPVALYLGLKRGEVVK [RPB5]	1.67 ± 0.24	1.6 ± 0.15	1.32 ± 0.14	1.37 ± 0.13
RNNSNNKTSNNNNVTAV [SWI1]	2.73 ± 0.05	2.6 ± 0.054	1.74 ± 0.096	2.81 ± 0.044
RSGALIKFKKCDGDTVW [SSN2]	2.85 ± 0.053	2.9 ± 0.048	2.62 ± 0.048	2.71 ± 0.043
SFNCENFFQAPQDYVLE [YML031W/NDC1]	3.07 ± 0.079	3.06 ± 0.082	3.09 ± 0.07	3.11 ± 0.067
NIQKKQPAKEKGVTEKD [RRP6]	3.12 ± 0.1	3.17 ± 0.045	3.11 ± 0.051	3.28 ± 0.047
AKVVVTTSRFSKQVTDY [FAS2]	3.08 ± 0.084	2.71 ± 0.082	3.12 ± 0.055	3.15 ± 0.058
GLDKFSNIDIRVRVTGG [RPS16A]	1.51 ± 0.082	1.74 ± 0.072	1.52 ± 0.22	1.54 ± 0.055
SDSEIPPLLVYKWTQGI [PRP8]	2.3 ± 0.056	2.36 ± 0.057	2.26 ± 0.068	2.07 ± 0.074
KFSDIIQGISKMYSDDT [BRN1]	2.93 ± 0.062	2.71 ± 0.066	2.14 ± 0.08	2.3 ± 0.085
YPPMPFDGFLFGSRVMI [FAS1]	2.64 ± 0.075	2.75 ± 0.071	2.53 ± 0.11	2.54 ± 0.048
ASQPEPTTNEPAKPALS [YJL041W/NSP1]	2.81 ± 0.097	3.14 ± 0.077	2.92 ± 0.059	3.12 ± 0.06
QALDAVRMRLAQLTHSL [MED8]	1.58 ± 0.04	1.58 ± 0.047	1.54 ± 0.065	1.5 ± 0.035
KSNDSEGDFLKSIIGKL [POP1]	1.28 ± 0.12	2.91 ± 0.088	1.93 ± 0.11	1.3 ± 0.15
DKLYIHFVQEEPLAFYL [RGR1]	2.21 ± 0.041	2.35 ± 0.045	2.4 ± 0.045	2.32 ± 0.033
LNAIVSKNSPAEDDVII [YJR042W/NUP85]	3.44 ± 0.14	3.37 ± 0.17	3.27 ± 0.087	3.22 ± 0.12
VEQYKFRETTHSKRELD [BRR2]	3.27 ± 0.072	2.96 ± 0.059	2.58 ± 0.054	2.73 ± 0.054
DRVEDICERIFEQGQAL [RRI2]	2.72 ± 0.12	3.02 ± 0.17	3.18 ± 0.22	
SLYKVSFLEKPKFAIQD [YMR129W/POM152]	2.93 ± 0.11	2.68 ± 0.12	2.77 ± 0.071	2.53 ± 0.13
LYGAPGTGKTLLAKAVA [RPT2]	1.77 ± 0.11	1.48 ± 0.12		1.58 ± 0.1
SASNTAKSTPNTNPSPL [GAL11]	2.67 ± 0.044	2.87 ± 0.042	2.65 ± 0.038	2.9 ± 0.032
MSEVITITKRNGAFQNS [RRP4]	2.33 ± 0.083	2.31 ± 0.076	2.79 ± 0.067	2.18 ± 0.059

Sequence	protein stability index (doa10∆)	protein stability index (pdr5∆)	protein stability index (san1∆)	protein stability index (ubr1∆)
LGRLSVRELVEKIDGMD [RPC82]	3.08 ± 0.19	3.4 ± 0.26	3.23 ± 0.11	3.3 ± 0.063
KAGLMTGGISGDANNRW [SMC1]	2.38 ± 0.11	2.31 ± 0.088	2.54 ± 0.062	2.51 ± 0.074
GISNGSESKDSDKPSLP [YLR335W/NUP2]	3.29 ± 0.13	3.19 ± 0.12		2.79 ± 0.13
NNRISNANEISANTNNT [SWP82]	2.14 ± 0.05	2.25 ± 0.049	2.54 ± 0.066	2.66 ± 0.048
RGKDCTVVISQKKVPDK [SCL1]	2.59 ± 0.086	2.83 ± 0.076	2.83 ± 0.074	2.71 ± 0.051
DDFQNFFDPKPFDQNLD [SWI1]	2.53 ± 0.061	1.95 ± 0.055	2.13 ± 0.1	2.12 ± 0.052
FPEVFQVNIRFLLHNSE [SRB8]	1.64 ± 0.1	1.73 ± 0.13		2.62 ± 0.17
GVGILYKGMASNDERIV [BRR2]	2.44 ± 0.098	2.23 ± 0.081	1.79 ± 0.11	3.15 ± 0.09
KDPSPEILVLYNVCDTS [SIN4]	2.8 ± 0.071	2.9 ± 0.06	2.82 ± 0.058	2.88 ± 0.12
LNEALLQCPMLYVESTG [CSN12]	1.47 ± 0.088	1.26 ± 0.09	1.23 ± 0.15	1.19 ± 0.054
NDVQGIDDVQTIKVVKR [RPP1]	3.08 ± 0.064	2.62 ± 0.066	2.69 ± 0.053	2.81 ± 0.056
EVKTPKIPLFTFAKSKN [SIR4]	2.77 ± 0.054	2.98 ± 0.06	2.57 ± 0.043	2.81 ± 0.042
ANKEKKKAEKAARKAEK [RPL24A]	3.27 ± 0.059	3.33 ± 0.065	3.38 ± 0.036	3.48 ± 0.055
CPLSQQFCGIKERNSLK [BRR2]	2.88 ± 0.16	3.14 ± 0.1	2.71 ± 0.094	3.08 ± 0.076
LKNIMKVSDPYVPTRNT [RPN4]	3.07 ± 0.15	2.67 ± 0.18	2.78 ± 0.071	2.59 ± 0.11
AALERLKIFEGIPPPYD [RPL16B]	1.62 ± 0.12	2.52 ± 0.089	1.34 ± 0.23	1.27 ± 0.064
CQEEVSTIEKDMKEYDS [SMC2]	3.39 ± 0.12	3.51 ± 0.084	3.42 ± 0.081	3.63 ± 0.095
QTGTKPVLKKKAAFLGS [COR1]	2.99 ± 0.064	3.14 ± 0.085	3.04 ± 0.076	3.16 ± 0.058
LEERFDPKSPTKRSIAI [YMR129W/POM152]	2.94 ± 0.055	3.14 ± 0.055	2.9 ± 0.037	3.02 ± 0.034
LGFVLLRDYTTVPRIVQ [RPN2]	1.58 ± 0.046	1.66 ± 0.053	1.35 ± 0.076	1.42 ± 0.038
GVRPFGVSLLIAGHDEF [PRE8]	2.46 ± 0.1	1.95 ± 0.096	1.94 ± 0.2	1.93 ± 0.075
WAMQGISYLQEVQCTST [PCI8]	3.32 ± 0.15	3.06 ± 0.13	2.19 ± 0.16	3.02 ± 0.099
LSSNITFDGKPTATPSP [YMR153W/NUP53]	2.91 ± 0.057	3.03 ± 0.058	3 ± 0.043	2.91 ± 0.046
SFQLSKIRRAARDLLTR [RPS9A]	2.06 ± 0.044	2.24 ± 0.044	2.21 ± 0.045	1.98 ± 0.032
RFNFISKYFIIDSFFLY [YMR129W/POM152]	1.58 ± 0.061	1.24 ± 0.072	1.31 ± 0.12	1.12 ± 0.059
QLTVCGAIIGWTRGTGL [FAS2]	1.26 ± 0.079	1.18 ± 0.067	1.09 ± 0.23	1.3 ± 0.085
